The results in this text go back to US20140093496A1 (Chugai, published 2014).

The target in assay [1] is T1, FcγRIIa type R extracellular domain with C-terminal His tag (human, UniProt P12318 34-217).
T1 chain: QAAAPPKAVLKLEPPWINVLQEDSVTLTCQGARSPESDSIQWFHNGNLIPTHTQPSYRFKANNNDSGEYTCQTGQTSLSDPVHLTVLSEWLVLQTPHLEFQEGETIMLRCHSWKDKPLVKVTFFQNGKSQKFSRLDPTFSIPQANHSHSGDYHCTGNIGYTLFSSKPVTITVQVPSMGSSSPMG
The experiment in a line: SPR (Biacore), antibody captured, FcγR analyte. The source says: (§1) Furthermore, KD(IIaR)/KD(IIb) and KD(IIaH)/KD(IIb) in the table respectively show the value obtained by dividing the KD value of each variant for FcγRIIaR by the KD value of each variant for FcγRIIb, and the value obtained by dividing the KD value of each variant for FcγRIIaH by the KD value of each variant for FcγRIIb. KD(IIb) of the parent polypeptide/KD(IIb) of the altered polypeptide refers to a value obtained by dividing the KD value of the parent polypeptide for FcγRIIb by the KD value of each variant for FcγRIIb.
(§2) Kinetic analyses for calculating the KD values of each altered antibody for FcγR were performed according to the following method. First, antibodies of interest were captured onto the above-mentioned sensor chips, and an Fcγ receptor diluted with the running buffer was allowed to interact. The Biacore Evaluation Software was used to globally fit the measured results to the obtained sensorgram using the 1:1 Langmuir binding model, and the association rate constant ka (L/mol/s) and the dissociation rate constant kd (1/s) were calculated; and from those values the dissociation constants KD (mol/L) were calculated.
(In general: Surface plasmon resonance follows binding to a sensor surface in real time, without labels.)

The target of assay [2] is T2, FcγRIIIa type V extracellular domain with C-terminal His tag (human, UniProt P08637 17-208).
T2 construct: extracellular domain; also called FcγRIIIaV; FcgRIIIaV; not shown: His tag at the C terminus
Nature of the assay: SPR (Biacore), antibody captured, FcγR analyte.
Excerpt: as §1, §2
T2 sequence (P08637 17-208 F176V): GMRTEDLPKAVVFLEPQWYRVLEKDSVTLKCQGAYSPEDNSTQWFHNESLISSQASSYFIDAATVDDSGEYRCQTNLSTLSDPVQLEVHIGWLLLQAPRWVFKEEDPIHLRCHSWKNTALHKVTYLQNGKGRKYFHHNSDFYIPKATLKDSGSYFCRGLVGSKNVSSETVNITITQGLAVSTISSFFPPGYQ

Assay [3] has as its target T3, FcγRIIIa type V extracellular domain with C-terminal His tag (human, UniProt P08637 17-208).
T3 construct: extracellular domain; also called FcgRIIIaV; FcγRIIIaV
The experiment in a line: SPR (Biacore).
T3 sequence (P08637 17-208 F176V): as above

Assay [4] concerns the target T4, FcγRIIa type R extracellular domain with C-terminal His tag (human, UniProt P12318 34-217).
T4 construct: extracellular domain; also called FcgRIIaR; FcγRIIaR
T4 sequence (looked up): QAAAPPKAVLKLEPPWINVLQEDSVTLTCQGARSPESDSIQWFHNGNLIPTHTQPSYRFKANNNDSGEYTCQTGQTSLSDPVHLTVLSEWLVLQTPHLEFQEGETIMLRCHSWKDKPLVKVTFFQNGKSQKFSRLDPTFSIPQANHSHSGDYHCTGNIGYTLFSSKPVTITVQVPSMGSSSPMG
Nature of the assay: SPR (Biacore).

B1: IL6R-PD043/IL6R-L (antibody, human IgG1, kappa)
heavy: QVQLQESGPGLVKPSETLSLTCAVSGHSISHDHAWSWVRQPPGEGLEWIGFISYSGITNYNPSLQGRVTISRDNSKNTLYLQMNSLRAEDTAVYYCARSLARTTAMDYWGEGTLVTVSSASTKGPSVFPLAPSSKSTSGGTAALGCLVKDYFPEPVTVSWNSGALTSGVHTFPAVLQSSGLYSLSSVVTVPSSSLGTQTYICNVNHKPSNTKVDKKVEPKSCDKTHTCPPCPAPEYLGGDSVFLFPPKPKDTLYISRTPEVTCVVVDVSHEDPEVKFNWYVDGVEVHNAKTKPREEQYNSTYRVVSVLTVLHQDWLNGKEYKCKVSNKALPAPIEKTISKAKGQPREPQVYTLPPSRDELTKNQVSLTCLVKGFYPSDIAVEWESNGQPENNYKTTPPVLDSDGSFFLYSKLTVDKSRWQQGNVFSCSVMHEALHYHYTQKSLSLSP
light: not shown
notes: IL6R-F11 with P238D/L234Y; copies: 2 + 2
The term Kd denotes the constant that tells how readily two partners part at equilibrium. A high value points to a looser complex. With B1, the results for the dissociation constant (Kd) in assay [1] and in assay [2] were 26 µM and 45 µM, respectively.

B2: IL6R-PD082/IL6R-L (antibody, human IgG1, kappa)
heavy: QVQLQESGPGLVKPSETLSLTCAVSGHSISHDHAWSWVRQPPGEGLEWIGFISYSGITNYNPSLQGRVTISRDNSKNTLYLQMNSLRAEDTAVYYCARSLARTTAMDYWGEGTLVTVSSASTKGPSVFPLAPSSKSTSGGTAALGCLVKDYFPEPVTVSWNSGALTSGVHTFPAVLQSSGLYSLSSVVTVPSSSLGTQTYICNVNHKPSNTKVDKKVEPKSCDKTHTCPPCPAPELLGFDSVFLFPPKPKDTLYISRTPEVTCVVVDVSHEDPEVKFNWYVDGVEVHNAKTKPREEQYNSTYRVVSVLTVLHQDWLNGKEYKCKVSNKALPAPIEKTISKAKGQPREPQVYTLPPSRDELTKNQVSLTCLVKGFYPSDIAVEWESNGQPENNYKTTPPVLDSDGSFFLYSKLTVDKSRWQQGNVFSCSVMHEALHYHYTQKSLSLSP
light: not shown
notes: IL6R-F11 with P238D/G237F; copies: 2 + 2
Consider B2, for which the Kd in assay [1] is 14 µM; in assay [2], 43 µM.

B3: IL6R-PD095/IL6R-L (antibody, human IgG1, kappa)
heavy: QVQLQESGPGLVKPSETLSLTCAVSGHSISHDHAWSWVRQPPGEGLEWIGFISYSGITNYNPSLQGRVTISRDNSKNTLYLQMNSLRAEDTAVYYCARSLARTTAMDYWGEGTLVTVSSASTKGPSVFPLAPSSKSTSGGTAALGCLVKDYFPEPVTVSWNSGALTSGVHTFPAVLQSSGLYSLSSVVTVPSSSLGTQTYICNVNHKPSNTKVDKKVEPKSCDKTHTCPPCPAPELLGYDSVFLFPPKPKDTLYISRTPEVTCVVVDVSHEDPEVKFNWYVDGVEVHNAKTKPREEQYNSTYRVVSVLTVLHQDWLNGKEYKCKVSNKALPAPIEKTISKAKGQPREPQVYTLPPSRDELTKNQVSLTCLVKGFYPSDIAVEWESNGQPENNYKTTPPVLDSDGSFFLYSKLTVDKSRWQQGNVFSCSVMHEALHYHYTQKSLSLSP
light: not shown
notes: IL6R-F11 with P238D/G237Y; copies: 2 + 2
On to B3, for which the Kd in assay [1] is 7.9 µM; in assay [2], 42 µM.

B4: IL6R-PD081/IL6R-L (antibody, human IgG1, kappa)
heavy: QVQLQESGPGLVKPSETLSLTCAVSGHSISHDHAWSWVRQPPGEGLEWIGFISYSGITNYNPSLQGRVTISRDNSKNTLYLQMNSLRAEDTAVYYCARSLARTTAMDYWGEGTLVTVSSASTKGPSVFPLAPSSKSTSGGTAALGCLVKDYFPEPVTVSWNSGALTSGVHTFPAVLQSSGLYSLSSVVTVPSSSLGTQTYICNVNHKPSNTKVDKKVEPKSCDKTHTCPPCPAPELLGEDSVFLFPPKPKDTLYISRTPEVTCVVVDVSHEDPEVKFNWYVDGVEVHNAKTKPREEQYNSTYRVVSVLTVLHQDWLNGKEYKCKVSNKALPAPIEKTISKAKGQPREPQVYTLPPSRDELTKNQVSLTCLVKGFYPSDIAVEWESNGQPENNYKTTPPVLDSDGSFFLYSKLTVDKSRWQQGNVFSCSVMHEALHYHYTQKSLSLSP
light: not shown
notes: IL6R-F11 with P238D/G237E; copies: 2 + 2
B4: the Kd in assay [1] amounted to 38 µM; in assay [2] it was 41 µM.

B5: IL6R-2B253/IL6R-L (antibody, human IgG1, kappa)
heavy: QVQLQESGPGLVKPSETLSLTCAVSGHSISHDHAWSWVRQPPGEGLEWIGFISYSGITNYNPSLQGRVTISRDNSKNTLYLQMNSLRAEDTAVYYCARSLARTTAMDYWGEGTLVTVSSASTKGPSVFPLAPSSKSTSGGTAALGCLVKDYFPEPVTVSWNSGALTSGVHTFPAVLQSSGLYSLSSVVTVPSSSLGTQTYICNVNHKPSNTKVDKKVEPKSCDKTHTCPPCPAPDLLGGDSVFLFPPKPKDTLMISRTPEVTCVVVDVSHEDPEVKFNWYVDGVEVHNAKTKPREEQYNSTYRVVSVLTVLHQDWLNGKEYKCKMSNKALPAPIEKTISKAKGQPREPQVYTLPPSRDELTKNQVSLTCLVKGFYPSDIAVEWESNGQPENNYKTTPPVLDSDGSFFLYSKLTVDKSRWQQGNVFSCSVMHEALHNHYTQESLSLSP
light: not shown
notes: E233D/P238D/V323M (EU) in IL6R-B3; copies: 2 + 2
Take B5: the Kd in assay [3] turned out to be 50 µM; in assay [4], 5 µM.

B6: IL6R-PD086/IL6R-L (antibody, human IgG1, kappa)
heavy: QVQLQESGPGLVKPSETLSLTCAVSGHSISHDHAWSWVRQPPGEGLEWIGFISYSGITNYNPSLQGRVTISRDNSKNTLYLQMNSLRAEDTAVYYCARSLARTTAMDYWGEGTLVTVSSASTKGPSVFPLAPSSKSTSGGTAALGCLVKDYFPEPVTVSWNSGALTSGVHTFPAVLQSSGLYSLSSVVTVPSSSLGTQTYICNVNHKPSNTKVDKKVEPKSCDKTHTCPPCPAPELLGLDSVFLFPPKPKDTLYISRTPEVTCVVVDVSHEDPEVKFNWYVDGVEVHNAKTKPREEQYNSTYRVVSVLTVLHQDWLNGKEYKCKVSNKALPAPIEKTISKAKGQPREPQVYTLPPSRDELTKNQVSLTCLVKGFYPSDIAVEWESNGQPENNYKTTPPVLDSDGSFFLYSKLTVDKSRWQQGNVFSCSVMHEALHYHYTQKSLSLSP
light: not shown
notes: IL6R-F11 with P238D/G237L; copies: 2 + 2
With B6, binding in assay [2] was put at a Kd of 41 µM.

B7: IL6R-BP085/IL6R-L (antibody, human IgG1, kappa)
heavy: QVQLQESGPGLVKPSETLSLTCAVSGHSISHDHAWSWVRQPPGEGLEWIGFISYSGITNYNPSLQGRVTISRDNSKNTLYLQMNSLRAEDTAVYYCARSLARTTAMDYWGEGTLVTVSSASTKGPSVFPLAPSSKSTSGGTAALGCLVKDYFPEPVTVSWNSGALTSGVHTFPAVLQSSGLYSLSSVVTVPSSSLGTQTYICNVNHKPSNTKVDKKVEPKSCDKTHTCPPCPAPELLGDDSVFLFPPKPKDTLMISRTPEVTCVVVDVSHEDPEVKFNWYVDGVEVHNAKTKPREEQYNSTYRVVSVLTVLHQDWLNGKEYKCKVSNKALPKPIEKTISKAKGQPREPQVYTLPPSRDELTKNQVSLTCLVKGFYPSDIAVEWESNGQPENNYKTTPPVLDSDGSFFLYSKLTVDKSRWQQGNVFSCSVMHEALHNHYTQESLSLSP
light: not shown
notes: G237D/P238D/A330K (EU) in IL6R-B3; copies: 2 + 2
Regarding B7, the Kd in assay [3] is 68 µM; in assay [4], 4.2 µM.

B8: IL6R-BP190/IL6R-L (antibody, human IgG1, kappa)
heavy: QVQLQESGPGLVKPSETLSLTCAVSGHSISHDHAWSWVRQPPGEGLEWIGFISYSGITNYNPSLQGRVTISRDNSKNTLYLQMNSLRAEDTAVYYCARSLARTTAMDYWGEGTLVTVSSASTKGPSVFPLAPSSKSTSGGTAALGCLVKDYFPEPVTVSWNSGALTSGVHTFPAVLQSSGLYSLSSVVTVPSSSLGTQTYICNVNHKPSNTKVDKKVEPKSCDKTHTCPPCPAPELLGDDSVFLFPPKPKDTLMISRTPEVTCVVVDVSDEDGEVKFNWYVDGVEVHNAKTKPREEQYNSTYRVVSVLTVLHQDWLNGKEYKCKVSNKALPKPIEKTISKAKGQPREPQVYTLPPSRDELTKNQVSLTCLVKGFYPSDIAVEWESNGQPENNYKTTPPVLDSDGSFFLYSKLTVDKSRWQQGNVFSCSVMHEALHNHYTQESLSLSP
light: not shown
notes: G237D/P238D/H268D/P271G/A330K (EU) in IL6R-B3; copies: 2 + 2
Consider B8, for which binding in assay [3] was characterised by a dissociation constant (Kd) of 45 µM.

B9: IL6R-PD097/IL6R-L (antibody, human IgG1, kappa)
heavy: QVQLQESGPGLVKPSETLSLTCAVSGHSISHDHAWSWVRQPPGEGLEWIGFISYSGITNYNPSLQGRVTISRDNSKNTLYLQMNSLRAEDTAVYYCARSLARTTAMDYWGEGTLVTVSSASTKGPSVFPLAPSSKSTSGGTAALGCLVKDYFPEPVTVSWNSGALTSGVHTFPAVLQSSGLYSLSSVVTVPSSSLGTQTYICNVNHKPSNTKVDKKVEPKSCDKTHTCPPCPAPELLGGDDVFLFPPKPKDTLYISRTPEVTCVVVDVSHEDPEVKFNWYVDGVEVHNAKTKPREEQYNSTYRVVSVLTVLHQDWLNGKEYKCKVSNKALPAPIEKTISKAKGQPREPQVYTLPPSRDELTKNQVSLTCLVKGFYPSDIAVEWESNGQPENNYKTTPPVLDSDGSFFLYSKLTVDKSRWQQGNVFSCSVMHEALHYHYTQKSLSLSP
light: not shown
notes: IL6R-F11 with P238D/S239D; copies: 2 + 2
For B9, the Kd in assay [1] came out at 3.5 µM; in assay [2], 17 µM.

B10: IL6R-PD094/IL6R-L (antibody, human IgG1, kappa)
heavy: QVQLQESGPGLVKPSETLSLTCAVSGHSISHDHAWSWVRQPPGEGLEWIGFISYSGITNYNPSLQGRVTISRDNSKNTLYLQMNSLRAEDTAVYYCARSLARTTAMDYWGEGTLVTVSSASTKGPSVFPLAPSSKSTSGGTAALGCLVKDYFPEPVTVSWNSGALTSGVHTFPAVLQSSGLYSLSSVVTVPSSSLGTQTYICNVNHKPSNTKVDKKVEPKSCDKTHTCPPCPAPELLGWDSVFLFPPKPKDTLYISRTPEVTCVVVDVSHEDPEVKFNWYVDGVEVHNAKTKPREEQYNSTYRVVSVLTVLHQDWLNGKEYKCKVSNKALPAPIEKTISKAKGQPREPQVYTLPPSRDELTKNQVSLTCLVKGFYPSDIAVEWESNGQPENNYKTTPPVLDSDGSFFLYSKLTVDKSRWQQGNVFSCSVMHEALHYHYTQKSLSLSP
light: not shown
notes: IL6R-F11 with P238D/G237W; copies: 2 + 2
In the case of B10, the figures for the Kd in assay [1] and in assay [2] were 7.2 µM and 38 µM, respectively.
